Assay results reported in the DeepSol protein solubility set.

assay: soluble on expression in E. coli; label from the status in PepcDB or PDB records

Sequence	soluble on expression in E. coli
MSLDRASHLKMSSEERRAHRDGTVWQLYEWQQRQQFRHGSPTAPICLGSPEFTDQGRSRSMLEVPRSISVPPSPSDIPPPGPPRVFPPRRPHTPAERVTVKPPDQRRSVDISLGDSPRRARGHAVKNSSHVDRRSMPSMGYMTHTVSAPSLHGKSADDTYLQLKKDLEYLDLKMTGRDLLKDRSLKPVKIAESDTDVKLSIFCEQDRVLQDLEDKIRALKENKDQLESVLEVLHRQMEQYRDQPQHLEKIAYQQKLLQEDLVHIRAELSRESTEMENAWNEYLKLENDVEQLKQTLQEQHRRAFFFQEKSQIQKDLWRIEDVTAGLSANKENFRILVESVKNPERKTVPLFPHEGHHHHHH	soluble
MGSSHHHHHHSSGRENLYFQGVRPAVIAATGLYTPPDSVSNAELVEAFNTYVANFNAANKARIEAGEIEPLQPSSSEFIEKASGIKSRYVVAKPGIVDPDVMRPIIPERSNDELSILAEMAVTAAEQAIERWGKPRERIGAVLCACSNMQRAYPAMAIEVQNALGLGGFAFDMNVACSSATFGLKTAADFVGGGSVDAVLMVNPEICSGHLNFRDRDSHFIFGDVATAAIVERADDAQGGWSILGTKLKTQFSNNIRNNAGFLNRAWPEGRDKADKLFVQQGRKVFKEVVPLVSEMIIEHAREIGIDPHGLKRMWLHQANINMNEIIGRKVLGRDPTRDENVIILDDYANTSSAGSIIAFHKHQDDMAQGDLGLICSFGAGYSAGTVFVQKR	soluble
MSDPRPARAVVVGIDGSRAATHAALWAVDEAVNRDIPLRLVYVIDPSQLSAAGEGGGQSAARAALHDASRKVEATGQPVKIETEVLCGRPLTKLMQESRSAAMLCVGSVGLDHVRGRRGSVAATLAGSALCPVAVIHPSPAEPATTSQVSAVVAEVDNGVVLRHAFEEARLRGVPLRAVAVHAAETPDDVEQGSRLAHVHLSRRLAHWTRLYPEVRVDRAIAGGSACRHLAANAKPGQLFVADSHSAHELCGAYQPGCAVLTVRSANL	not soluble
MSNNDCISTDKVDLDKKQIKKFLKQINISQLTKMIQFIDNKLLSDWDFNCLTYFDESEYPFFDINLSLICTIDHNIPINIIINFLCFVEKQYNNVPYHNTIHATMVTQKFFCLAKKLGIYDDLEYKIKLVMFISGICHDIGHPGYNNLFFVNSLHPLSIIYNDISVLENYHASITFKILQLNQCNILKNFSEKDFRMMRSYIIELILSTDMKHHFEIISKFRIRRENEDFDYIKNSDDLLILTKMIIKSADISHGSVSWSEHYCWCQRVLSEFYTQGDEELKNKMPLSPLCDRTKHNEVCKSQITFLKFVVMPLFEELSHIDNNKFIKSFCLKRLNSNCIMWDTLMKEEKTIE	soluble
MGSSHHHHHHSSGLVPRGSHMRIAIVVPYLAKVEGNKIALILASKLAKNNEVFVVSYAVKDSIIDEVNSLISPAKFFYQKAISNGRYGIRFAIKYQLLKGVDRKMANLLKALMPLDIYLVISNEGHWIPIYFDKAYGTKSALVVMELHDHGFISAGNDPLRFPILRTVLASPAYGLAKVIEYKRFKSFDILFANSKWTQIVFQYLYGLPVSGILFGIDTEVFKPTPSKFSEMNFIAVPTISLKKDYYGRRLISKLAKDGIPLLSYGPIKIEGVKHLGYLSQDEMVKILSAAKATLFLFNYEALGLIPFESLACGTPVITYPKQGPLVELSDNPNVIYFREYEELLKNCRLHLNSAKDEMTINKCRESVLKYDISKVSVDVEQLFQTIIFNKNKS	soluble
MSLISLSFFPGAKIGVLGLNGAGKSTLLRIMAGIDKDIDGEARPQPGLKVGYLPQEPKLDESKTVREVVEEAVADVAYALKRLDEVYAAYAEPDADFDALAKEQGELEALIQAKNGHNLDNALERAADALRLPEWDAQVKYLSGGERRRVAICRLLLENPDMLLLDEPTNHLDAESVAWLERFLVDYAGTVVAITHDRYFLDNAAGWILELDRGEGIPWQGNYTSWLEQKDARLKQEASQEKARQKTIEKELEWVRQNPKGRQAKSKARMARFEELQNTEHQKRNETNELFIPPGERLGDKVIEVKNLTKSFDGRVLIDDLSFSMPKGAIVGIIGPNGAGKSTLFKMLSGVEKPDSGTIELGDTVKLASVDQFRDSMNDKHTVFQEISEGADIIRINNFEIPARAYCSRFNFKGVDQQKVIGELSGGERNRVHLAKLLKAGGNVLLLDEPTNDLDVETLRALEEALLEFPGCAMVISHDRWFLDRIATHILDYRDEGKVNFYEGNYTEYMEWLKQTLGAQAAEPHRIKYKRITK	not soluble
MTEHVITSKCESPLLQAFVDNYLLLVKIAARIVGCRSRAEDVVQDAFFRLRSAPQATLTFKAQLSYLFQIVRNLAIDHYRKQALEQKYTGPEAEGLNVVIQGASPEISHINFTSLEKIADALSELPPRTRYAFEMYRLHGVPQKDIAKELGVSPTLVNFMIRDALIHCRKVNGTTAEA	not soluble
MTCEGRRTMTQPISLGHRMSLIDLYDLRMPQRTGTYVLHEENLAIIETGPSPSVPHLLAGLKALHIDPADIRYIIVTHIHLDHAGGVGVLLEHCPNATVIVHPKGKRHLADPSRLIAGAKAVYGEQFDALFDPIVPVPEERLLVKEDGETLVLSAERTLTFYDTPGHANHHFSIYDSYSGGVFTGDTIGVFYPQLQEAGLAFCLPSTSPNQFNPEAMKQSAERLEKLNPTRIYFGHFGALDQPEEAFRQLRFWLPKFVAAGKEVIARHPEAPAAEQAKAVTKLLHNDITAFLNECSIPASSPVYKVIELDLQVCAMGIIDYWRKQRLEHHHHHH	soluble
MGSDKIHHHHHHMTEDIIKKYRGKLPESILEQWHLFGFAGYLNGLYWITNPDDYAEVIYDWLEETPLPDDDVYHVLARSAFGELLIWGERNYGRYYIKTMEGILHDNGEQLESAEFYGSDFFFLPKKNYLDYTDKNGNKLFDRAVKKLGVLKADEMYAFEPALALGGEESLQHLTKVNLPVHMKLLKQVTPLRLRTFEDLTAALYGTSYSVDDLTSGQDAESQYQESVQAGEVCPRTGYWTTPAQPNTRHYCKKGEVLPEIKEQDWGEVYWYWDGEN	not soluble
MPIITKNTDTTCQTPPLLSIICPAYNQEAFVAQALDGFLSQQTRFNYEILINDDASTDGTARIIAQYAERHPTIIRAFYQQVNQYSQGLPCVPDLFAEARGRYIAYCEADDYWTDPRKLQLQVDFLESHPDYVITYHDAVAFDENGEYGVQLQGHLRADATALELQQARRLSTLTTCFRNVFSTMPPELNIRVAPLNDMCWWSLLGAHGKGKFMADIKPAAYRLHAGGVFSMRSDKRKLHMNLQTCSSLANYYNLQGNQALYEYFLMQTVCLSLAALTPSHKLQTLWQVASNVVVNLGRRLLPTTGKAHVQ	not soluble
MSLISPIIRLSHVTFQTSSAARVIKEFVTKYQFHPFAARGLDGGSPCQVALKNGGVVFMVNENTPKTHENSVLLYDFPLQIPFPDTACNVTFEVEDVSGLYHHLVDEGCQLLLPPTELHDDFGSVTYCIVKSVVGNVSHTLIDRTHYRSSFLPGFEYLKNSTHNLSSGNMTEGHHHHHH	not soluble
MAHHHHHHMPWATTLDLKATPPPTLCVTVSNTTDVLIIADMQVDFLTPGGSLHVKGGEALLDGINAVSSQLPFRYQVATQDWHPENHCSFVTHGGPWPPHCVQGSSGAQLHAGLHTHRINAVLRKGATQQADSYSAFVDDNGVSTGLAGLLHSIGARRVFVCGVAYDFCVFFTAMDARKNGFGVVLLEDLTAAVDDAAWSARAAELKEAGVVLLSSSALVAEGTET	soluble
MLLDVQRGQLSFTKYSIITVIWLSLSRILNRGQLSLECFEFWQPTSQLLVLDVCLLDAFALEHHHHHH	not soluble
GPGSMGSGYLKRKRQRQELLNDFYSALSLSSFDTTSGQFSKLVTRTVYHYPSSLPFPVLLDDDFPAEPYRSRNKDIKSAIHWGQRKLLLSEIQLLSMYCRPEISYHIVYAGAAPGTHLAFLDEMFSCRHTWELIDPGQFDRAVLEPRANFRLRNEFFTNATAYGINARRLTEVLPALGFVYQNVAVDSVQVDKKAIHEQLQDIVGTLDVARGTEDIPAMYEAPLSLPKGLELLAQVALERNKPLLFISDIRSGSVALPNFEDHVAENMRAQECWTNILHGEHSMLKFRLPYTSKSTKFGGQGAVRETLLIREDGTVPYLRGDMLLPIWTRPTSTEGRLVVPQGAFQKDYNVAHVEDQFFFFNSSVREQVHFNHLVAHDSELDHHYDAAAEVHCLLTYLRFIRPELKTAKTGELRKEVLRVAHSITAHLGITFEDAIRRRDALMINHAKKSQNKAVEGHKDDAYGDEEAEEQEAKSAASKVRAGSNESAAAADGAATSTTAPVPPSEWEQTTRLMVRLSNYDRNRSVWSRNVREEEHSKTSGFWVTTKMPQA	not soluble
MPPKKDPKGGKAPPSKKKEGSGGGKAKKKKWSKGKVRDKLNNMVLFDQATYDKLYKEVITYKLITPSVVSERLKVRASLAKAGLKELQAKGLVKCVVHHHGQVVYTRATKEADVIVE	soluble
MPAENSVEVHRLRKSVGQGEHELSILTGVELVVKRGETIALIGESGSGKSTLLAILAGLDDGSSGEVSLVGKPLHQMDEEARAQLRAQHVGFVFQSFMLIPTLNALENVELPALLRGENSGQSKAGAKALLEQLGLGKRLDHLPAQLSGGEQQRVALARAFNGRPDVLFADEPTGNLDRQTGDKIADLLFSLNREHGTTLILVTHDPALAARCDRRLRLVNGQLQEEA	not soluble
MGSDKIHHHHHHAAVGEKLGWPQQKISKIESGEQKRIPAAELDALLEVYGVTDPQIRESLHECARLAKERGWWTRYKDAFPSGLPDFESEASVIRSYECQVIPGILQTPDYADAIFRAYKLREDKEIDRLVKARMERQNILNRVDPPHFMTIIDEAALHRLVGSVEVMRTQLRHLTHMASRHNIDIYVLPFKAGAHAATTGSFMIMDFPDPMDNSIVYVDTPTSILYIEDEEEVREFNVMFSRTQSAALSPTLSMDLVKKVIKSLEE	not soluble
MGSDKIHHHHHHMTQAITMPDNPGADCIIEAGIVLTGLDAGSGLTGLGADGKMTMRHDVGIRVEKGMIAQIGPMEAVGYGNDHLPRFGSRRMIAMPGLVNAHHHFGVTPLMQGVPFAPLELWLPQFRAMRRIDQRLDTLYSAIEMLESGTTTVQHIHSGFSGTPDSWMQTAEATISAYGEIGMRLGYCFMIRDRNILSYEPDADILSRLPAKLRDWIAPQLAAADIPVPRLMEFYTDLRARFMKGSPQHIRMNLAPANLHWCSDNALQTIFETAKAAGGNVHMHLLETERQAEFARRTYGRSAVQHLQKLQCLDANVTLGHGNWMSGEDLDIIASCGCTICHNASSGLRLGSGIAPVNEMRRRGIPVALGIDQSNIADDRDMTLEMKLVWALHRETGLWNDRPDAGAVLQMASEHGAASAGFGGFTGRLEPGWQADIVLMDKDRIARPAINSRTPPVEALLHRGGRHAIEQVFVGGRLVVDGGRVTTVDRDAVMAEIEAILSRPETDAERYAWQAVETLLPHLESSLQQLGLGAGYRRYRYNSMSDQ	not soluble
MSLTVMSIQDNLTINEKKVLLALEELRSAVPDKLEEKSGLQIDAAMQAAFMLQEKELASVSEKVLERYSLTKEGEEYKKTGLPERQIIDALKNPVSLEELRSCFSPQTVGIATGWLVKKGWAKVENGIMVPSGEASEGKDEKALSAFAGKAKTLEELGADEGTVKDLLKRKLVVKHEEKFRTVSITDAGSELASQGLVLEEEIAQLTPELLKSGAWKEKKFRPYRLDITPKPLYGTKIHPYRRLIEQMRQIFLEMGFTEIKGGIIQSSFWNFDALFQPQDHPARDMQDTFHLGSTCQIPAEYSGKVAAMHENGGDIDSCGWGGIWDRELAGRNVLRTHTTSVTIKYLADNPEPPVKAFCIDRAYRRETIDPTHTPEFEQLEGVVMDKDMSFADLLGLLAEFYHRMGFEEVRFRPGYFPYTEPSVEPEVYVDGLGWVELGGAGVFRKEVTEPLGIKAPVLAWGLGVSRLAMLKLGLKDLRLLYQSDIDWLRKSEVCKEGHHHHHH	soluble
